Assay results as given in patent US20210347908A1 (ELPISCIENCE SUZHOU BIOPHARMA, published 2021).
Like-named read-outs stand apart in the source and are kept apart here.

Assays:
[1] = target: T1, Fc tagged human SIRPα v2 ECD recombinant protein (human); experiment: ELISA
T1 construct: range 1-369; cloned range M1-R369 includes the signal peptide; also called hSIRPα V2
Method in brief: (§1)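 OD 450 nm readings gave EC₅₀ values after a TMB reaction of 15 min at room temperature, stopped with 1N HCl. Before that, antibodies were bound to antigen-coated wells for 1 h at 37° C. An HRP-labelled anti-mouse or anti-human IgG secondary was then applied for a further 1 h at 37° C.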

[2] = target: T2, Fc tagged human SIRPβ ECD recombinant protein (human, UniProt O00241 30-371); experiment: ELISA
T2 construct: range 1-371; cloned range includes the signal peptide; also called hSIRPβ; not shown: human IgG Fc region (hFc) of the pCPC vector
Method in brief: as §1

[3] = target: T1, Fc tagged human SIRPα v2 ECD …; experiment: ELISA; remark: listed apart in the source
Method in brief: (§2)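 Binding is reported as EC₅₀ from absorbance at 450 nm. Antibodies (hybridoma-derived or chimeric) are incubated with plate-coated antigen at 37° C. for 1 hour, followed by an HRP-conjugated anti-IgG secondary under the same conditions and TMB substrate.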

[4] = target: T2, Fc tagged human SIRPβ ECD recombinant …; experiment: ELISA; remark: listed apart in the source
Method in brief: as §2

[5] = target: T3, biotin labeled soluble human SIRPα v1 ECD recombinant protein (human, UniProt P78324 31-373, biotin labeled); experiment: competitive ELISA; competitor 022
T3 construct: extracellular domain
Method in brief: (§3)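 Competition ratio derived from OD 450 nm. Coated antibody was exposed to biotinylated human SIRPα v1 ECD in the presence of excess competitor antibody, followed by streptavidin-HRP and TMB colour development.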

[6] = target: T3, biotin labeled soluble human SIRPα v1 …; experiment: competitive ELISA; competitor 050
Method in brief: as §3

[7] = target: T3, biotin labeled soluble human SIRPα v1 …; experiment: competitive ELISA; competitor 074
Method in brief: as §3

[8] = target: T3, biotin labeled soluble human SIRPα v1 …; experiment: competitive ELISA; competitor HEFLB
Method in brief: as §3

[9] = target: T3, biotin labeled soluble human SIRPα v1 …; experiment: competitive ELISA; competitor KWAR23
Method in brief: as §3

[10] = target: T3, biotin labeled soluble human SIRPα v1 …; experiment: competitive ELISA; competitor 29-AM4-5
Method in brief: as §3

B1: reference antibody KWAR23 (antibody, V domains shown)
VH: EVQLQQSGAELVKPGASVKLSCTASGFNIKDYYIHWVQQRTEQGLEWIGRIDPEDGETKYAPKFQDKATITADTSSNTAYLHLSSLTSEDTAVYYCARWGAYWGQGTLVTVSS
VL: QIVLTQSPAIMSASPGEKVTLTCSASSSVSSSYLYWYQQKPGSSPKLWIYSTSNLASGVPARFSGSGSGTSYSLTISSMEAEDAASYFCHQWSSYPRTFGAGTKLELK
An EC50 [1] of 0.22 nM, an EC50 [2] of 0.18 nM and an EC50 [3] of 0.09 nM were found for B1 in this work. For the same binder, the EC50 [4] was 0.08 nM, the “% Competition” value [5] was 6% and the “% Competition” value [6] was 5%. For the same binder, the “% Competition” value [7] was 1%, the “% Competition” value [8] was 27% and the “% Competition” value [9] was 95%. For the same binder, the “% Competition” value [10] was 54%.

B2: reference antibody 29-AM4-5 (antibody, V domains shown)
VH: EVQLVESGGGLVQPGGSLRLSCAASGFNISYYFIHWVRQAPGKGLEWVASVYSSFGYTYYADSVKGRFTISADTSKNTAYLQMNSLRAEDTAVYYCARFTFPGLFDGFFGAYLGSLDYWGQGTLVTVSS
VL: DIQMTQSPSSLSASVGDRVTITCRASQSVSSAVAWYQQKPGKAPKLLIYSASSLYSGVPSRFSGSRSGTDFTLTISSLQPEDFATYYCQQAVNWVGALVTFGQGTKVEIK
An EC50 [1] of 0.2 nM, an EC50 [2] of 0.21 nM and an EC50 [3] of 0.08 nM were found for B2 in this work. The EC50 [4] was 0.08 nM, the “% Competition” value [5] was 8% and the “% Competition” value [6] was 7%. The “% Competition” value [7] was 4%, the “% Competition” value [8] was 25% and the “% Competition” value [9] was 93%. The “% Competition” value [10] was 91%.
